Results from the supplement of paper PMC9112550, “Optimization of the antimicrobial peptide Bac7 by deep mutational scanning” (BMC Biology, 2022).

System: Escherichia coli TOP10
Experiment: shrunken log2 fold change of peptide-encoding DNA abundance (4.5 h post-induction vs induction); higher = less antimicrobial activity (less host growth inhibition)
Settings: time post-induction: 4.5 h; library: site-saturation at positions 5, 18, 19, 20
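Note: peptides expressed intracellularly from a pBAD plasmid library in pooled LB shake-flask culture, induced with 0.3% L-arabinose, DNA abundance read by NGS, three biological replicates, DESeq2 with apeglm shrinkage.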

Row | Sequence | shrunken log2 fold change
1 | RRIRWRPPRLPRPRPRPPLYPRP | 0.188
2 | RRIRSRPPRLPRPRPRPKLMPRP | -0.125
3 | RRIRPRPPRLPRPRPRPGPTPRP | 0.0907
4 | RRIRWRPPRLPRPRPRPQFVPRP | -0.1
5 | RRIRFRPPRLPRPRPRPFAPPRP | 0.0349
6 | RRIRFRPPRLPRPRPRPWQQPRP | -0.104
7 | RRIRGRPPRLPRPRPRPGCFPRP | 1.1
8 | RRIRARPPRLPRPRPRPTSTPRP | 0.0502
9 | RRIRPRPPRLPRPRPRPVGNPRP | -0.0903
10 | RRIRVRPPRLPRPRPRPPTIPRP | 0.0741
11 | RRIRLRPPRLPRPRPRPARLPRP | 0.647
12 | RRIRHRPPRLPRPRPRPHCMPRP | -0.0295
13 | RRIRRRPPRLPRPRPRPPHWPRP | 0.932
14 | RRIRHRPPRLPRPRPRPANMPRP | -0.126
15 | RRIRGRPPRLPRPRPRPYSCPRP | 0.131
16 | RRIRLRPPRLPRPRPRPTWHPRP | 0.174
17 | RRIRPRPPRLPRPRPRPPGPPRP | 0.576
18 | RRIRIRPPRLPRPRPRPPTHPRP | -0.184
19 | RRIRKRPPRLPRPRPRPPHSPRP | 0.509
20 | RRIRGRPPRLPRPRPRPRMFPRP | 0.837
21 | RRIRCRPPRLPRPRPRPNYQPRP | -0.212
22 | RRIRWRPPRLPRPRPRPRSPPRP | 0.779
23 | RRIRSRPPRLPRPRPRPNREPRP | -0.138
24 | RRIRARPPRLPRPRPRPEKLPRP | 0.758
25 | RRIRSRPPRLPRPRPRPKWDPRP | 0.172

Row | Sequence | shrunken log2 fold change
26 | RRIRNRPPRLPRPRPRPCPSPRP | -0.0371
27 | RRIRWRPPRLPRPRPRPFFVPRP | 0.173
28 | RRIRERPPRLPRPRPRPFFLPRP | -0.384
29 | RRIRTRPPRLPRPRPRPRVDPRP | 0.181
30 | RRIRGRPPRLPRPRPRPKKCPRP | 0.544
31 | RRIRRRPPRLPRPRPRPTKPPRP | 0.541
32 | RRIRTRPPRLPRPRPRPFVRPRP | -1.25
33 | RRIRSRPPRLPRPRPRPQSCPRP | -0.00487
34 | RRIRHRPPRLPRPRPRPYWHPRP | -0.666
35 | RRIRDRPPRLPRPRPRPELRPRP | 0.621
36 | RRIRARPPRLPRPRPRPDFEPRP | 0.661
37 | RRIRTRPPRLPRPRPRPNFVPRP | 0.0615
38 | RRIRGRPPRLPRPRPRPYFQPRP | -0.161
39 | RRIRNRPPRLPRPRPRPVGAPRP | 0.0749
40 | RRIRERPPRLPRPRPRPIWIPRP | -0.222
41 | RRIRQRPPRLPRPRPRPRLRPRP | 0.44
42 | RRIRTRPPRLPRPRPRPFLSPRP | -0.195
43 | RRIRNRPPRLPRPRPRPSKKPRP | -0.0392
44 | RRIRRRPPRLPRPRPRPHPIPRP | 0.35
45 | RRIRLRPPRLPRPRPRPAMCPRP | 0.059
46 | RRIRFRPPRLPRPRPRPCGDPRP | -0.01
47 | RRIRRRPPRLPRPRPRPVGCPRP | 0.472
48 | RRIRERPPRLPRPRPRPFTLPRP | -0.21
49 | RRIRWRPPRLPRPRPRPEHWPRP | 0.83
50 | RRIRPRPPRLPRPRPRPCFIPRP | -0.735

Row | Sequence | shrunken log2 fold change
51 | RRIRHRPPRLPRPRPRPEHPPRP | 0.00839
52 | RRIRMRPPRLPRPRPRPQKCPRP | -0.0433
53 | RRIRPRPPRLPRPRPRPSVQPRP | -0.0553
54 | RRIRSRPPRLPRPRPRPIMIPRP | -0.426
55 | RRIRCRPPRLPRPRPRPHHIPRP | -0.88
56 | RRIRPRPPRLPRPRPRPDLDPRP | 0.114
57 | RRIRRRPPRLPRPRPRPCKNPRP | 0.0778
58 | RRIRYRPPRLPRPRPRPHSSPRP | -0.207
59 | RRIRVRPPRLPRPRPRPGVRPRP | 0.188
60 | RRIRPRPPRLPRPRPRPTWHPRP | 0.316
61 | RRIRTRPPRLPRPRPRPADQPRP | -0.0202
62 | RRIRDRPPRLPRPRPRPINLPRP | -0.129
63 | RRIRARPPRLPRPRPRPCEYPRP | -0.133
64 | RRIRFRPPRLPRPRPRPYPNPRP | -0.152
65 | RRIRWRPPRLPRPRPRPYLPPRP | -0.826
66 | RRIRNRPPRLPRPRPRPPIIPRP | -0.192
67 | RRIRGRPPRLPRPRPRPWQQPRP | 0.0543
68 | RRIRSRPPRLPRPRPRPVSGPRP | 0.00238
69 | RRIRGRPPRLPRPRPRPHPHPRP | 0.399
70 | RRIRSRPPRLPRPRPRPLRLPRP | 0.54
71 | RRIRIRPPRLPRPRPRPLGFPRP | -0.393
72 | RRIRCRPPRLPRPRPRPIDIPRP | 0.0768
73 | RRIRKRPPRLPRPRPRPPCSPRP | 0.202
74 | RRIRARPPRLPRPRPRPMVHPRP | 0.0572
75 | RRIRFRPPRLPRPRPRPVSHPRP | -0.266

Row | Sequence | shrunken log2 fold change
76 | RRIRIRPPRLPRPRPRPSQWPRP | -1.15
77 | RRIRCRPPRLPRPRPRPNICPRP | -0.488
78 | RRIRPRPPRLPRPRPRPNVSPRP | -0.0557
79 | RRIRARPPRLPRPRPRPPEYPRP | 0.386
80 | RRIRARPPRLPRPRPRPVWNPRP | 0.0865
81 | RRIRERPPRLPRPRPRPWCAPRP | -0.158
82 | RRIRLRPPRLPRPRPRPCQYPRP | -0.448
83 | RRIRHRPPRLPRPRPRPEADPRP | -0.00192
84 | RRIRIRPPRLPRPRPRPRDFPRP | -0.157
85 | RRIRVRPPRLPRPRPRPNNVPRP | -0.117
86 | RRIRERPPRLPRPRPRPPMEPRP | -0.0809
87 | RRIRYRPPRLPRPRPRPLEAPRP | 0.0153
88 | RRIRNRPPRLPRPRPRPWSEPRP | 0.0632
89 | RRIRRRPPRLPRPRPRPAVDPRP | 0.204
90 | RRIRQRPPRLPRPRPRPKPEPRP | -0.0759
91 | RRIRKRPPRLPRPRPRPALHPRP | 0.374
92 | RRIRGRPPRLPRPRPRPEGHPRP | 1.8
93 | RRIRNRPPRLPRPRPRPVGSPRP | 0.0409
94 | RRIRKRPPRLPRPRPRPGWCPRP | 0.639
95 | RRIRERPPRLPRPRPRPACVPRP | 0.24
96 | RRIRRRPPRLPRPRPRPDNNPRP | -0.187
97 | RRIRPRPPRLPRPRPRPPPYPRP | 0.0995
98 | RRIRVRPPRLPRPRPRPESWPRP | 0.28
99 | RRIRFRPPRLPRPRPRPLPNPRP | 0.184
100 | RRIRWRPPRLPRPRPRPETGPRP | 0.396

Row | Sequence | shrunken log2 fold change
101 | RRIRWRPPRLPRPRPRPTSQPRP | 0.229
102 | RRIRRRPPRLPRPRPRPSVQPRP | 0.184
103 | RRIRRRPPRLPRPRPRPWCSPRP | -0.0123
104 | RRIRYRPPRLPRPRPRPAPMPRP | -0.0449
105 | RRIRCRPPRLPRPRPRPQPMPRP | -0.0366
106 | RRIRCRPPRLPRPRPRPDMLPRP | -0.283
107 | RRIRFRPPRLPRPRPRPLVPPRP | 0.338
108 | RRIRDRPPRLPRPRPRPDGVPRP | -0.0199
109 | RRIRPRPPRLPRPRPRPAAGPRP | 0.287
110 | RRIRRRPPRLPRPRPRPNMWPRP | -0.253
111 | RRIRDRPPRLPRPRPRPTFFPRP | 2.16
112 | RRIRFRPPRLPRPRPRPKVCPRP | 0.0321
113 | RRIRYRPPRLPRPRPRPSCMPRP | -0.947
114 | RRIRLRPPRLPRPRPRPWNFPRP | -0.0899
115 | RRIRSRPPRLPRPRPRPYKMPRP | -0.425
116 | RRIRTRPPRLPRPRPRPPVGPRP | 1.18
117 | RRIRMRPPRLPRPRPRPYVDPRP | -0.249
118 | RRIRGRPPRLPRPRPRPFHVPRP | -0.0412
119 | RRIRLRPPRLPRPRPRPVERPRP | -0.0146
120 | RRIRDRPPRLPRPRPRPCVFPRP | 0.37
121 | RRIRYRPPRLPRPRPRPVCGPRP | -0.463
122 | RRIRDRPPRLPRPRPRPPVYPRP | -0.175
123 | RRIRGRPPRLPRPRPRPVWFPRP | 0.239
124 | RRIRKRPPRLPRPRPRPYIDPRP | -0.194
125 | RRIRHRPPRLPRPRPRPQNHPRP | -0.922
